Source: publication PMC12495166, “Enhanced solid tumor cell targeting by a neoepitope-encoding oncolytic measles virus combined with CAR therapy” (Molecular Therapy Oncology, 2025)

Key:
[1] = molecular target: T1, MICB-derived octapeptide VLQSQRTD (soluble) (Homo sapiens); assay: SPR; antibodies (2 μg/mL) immobilised on an IgG-capture sensor chip; peptides as analyte, 0.5-100 nM octapeptide or 1-200 μM 13-aa peptide; single-cycle kinetics; HBS-EP pH 7.4, 30 μL/min; Sierra SPR-24 Pro; details: both partners purified
T1 construct: stalk octapeptide starting at position V302 and ending N-terminally of the annotated transmembrane domain; also called immunization peptide
T1 chain: VLQSQRTD

[2] = molecular target: T2, MICB-derived octapeptide VLQSQRTD (soluble) (human); assay: SPR
T2 peptide: VLQSQRTD

B1: monoclonal antibody clone 12F7 (antibody, V domains shown)
VH: QVQLQQSGAELVRPGTSVKVSCKASGYAFTNYLIEWIKQRPGQGLEWIGVINPRSGGTNYNEKFKGKATLTADKSSITVYMQLSSLTSDDSAIYFCVRSESYGDYGAWFAYWGQGTLVTVSA
VL: DIVLTQSPASLAVSLGQRATISCRASESVDSYGNSFMHWYQQKPGQPPKLLIDRASNRESGIPARFSGSGSRTDFTLTINPVEADDVATYYCQQSNEDPFTFGSGTKLEIK
notes: variable heavy domain of clone 12F7; constant region of the murine heavy chain; variable light domain of clone 12F7; constant region of the murine light chain; also called 12-F7-C12-E3; mAb 12F7; source: mouse hybridoma (ProteoGenix), purified by protein A/G
In the case of B1, the Kd [1] is reported as 3.85 nM and the koff [2] is reported as 0.00536 s⁻¹.
